# Experimental data from patent publication US20130224191A1, “NOTUM PROTEIN MODULATORS AND METHODS OF USE” (priority 2010, published 2013).
# B1: SC2.D2.2 (antibody, V domains shown)
# VH: DVQLVESGGGLVQPGGSRKISCAASGFTFSSYGMHWVRQAPEKGLEWVAYISSSTVTTYYADTVKGRFTISRDNANNTLFLQMTSLRSEDTAMYYCSRQNWDGGYFDVWGAGTTVTVSS
# VL: DIVLTQSLASLAVSLGQRATISCRASKSVSSSGYSYMHWYQQKPGQPPKLLIYLASNLESGVPARFSGSGSGTDFTLNIHPVEEEDAATYYCQHSRALPLTFGAGTKLELKR
# notes: also called murine SC2.D2.2
# Experiments:
# hNotum = biological target: T1, hNotum (Homo sapiens, UniProt Q6P988); assay: Inhibition of hNotum lipase activity (Tween 20); assay type: biochemical; settings: preincubation, various concentrations
# T1 construct: 8x-His; Strep-tag II; IgK signal peptide/leader of the pSEC-CAG vector (N); made in house; host or cells: HEK293T (adherent) / suspension 293 cells
# T1 sequence (Q6P988 20-496): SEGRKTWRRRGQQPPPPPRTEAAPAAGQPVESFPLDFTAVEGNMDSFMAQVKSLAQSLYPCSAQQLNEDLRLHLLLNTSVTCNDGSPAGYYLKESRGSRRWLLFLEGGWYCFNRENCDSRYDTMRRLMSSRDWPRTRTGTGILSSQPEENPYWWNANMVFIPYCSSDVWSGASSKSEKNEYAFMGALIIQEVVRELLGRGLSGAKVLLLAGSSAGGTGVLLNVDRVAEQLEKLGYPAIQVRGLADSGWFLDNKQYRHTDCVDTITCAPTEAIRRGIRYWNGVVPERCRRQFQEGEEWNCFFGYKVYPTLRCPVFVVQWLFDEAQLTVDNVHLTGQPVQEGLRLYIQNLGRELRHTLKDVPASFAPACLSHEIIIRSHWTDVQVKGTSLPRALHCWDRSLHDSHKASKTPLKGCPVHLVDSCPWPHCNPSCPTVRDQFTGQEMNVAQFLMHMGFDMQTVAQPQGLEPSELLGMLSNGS
# Protocol: Briefly, recombinant hNotum (1 μg/well) was added to an assay buffer containing 50 mM Tris, pH 7.4, 33.3 mM CaCl2, and 0.33% Tween-20. When the Tween 20 monolauryl group is cleaved by lipases (e.g. hNotum), the free fatty acid forms an insoluble complex with the Ca^2+ cations resulting in a turbid solution, the OD of which can be measured at 405 nm to provide a measure of lipase activity. As a positive control, the activity of porcine pancreatic lipase (Sigma Aldrich) was measured in the same assay.
# In order to take advantage of this enzymatic property and further exemplify the properties of the present invention, an assay was run to determine the effects of Notum modulators on the lipolytic activity of Notum. To that end, various concentrations of SC2.D2.2 were preincubated with hNotum for a set period prior to adding the mixture to the assay buffer and measuring the resulting enzymatic activity as described above. The results of the assay are graphically represented in FIG. 20
# [1] = tested on: mouse lineage-depleted NTX tumor cells from SCRx-CR4; assay: Cell survival/proliferation, CellTiterGlo, SCRx-CR4; assay type: cell-based, human; settings: antibody 10 μg/mL, versus MOPC isotype control
# Protocol: To determine whether Notum protein impacts cell proliferation and/or apoptosis of human colorectal cancer cells, HCT-116 cells or mouse lineage-depleted NTX tumor cells (i.e. human tumor cells) were plated as described below and exposed to recombinant hNotum (e.g. hNotum-His or hNotum-hFc) and anti-Notum antibodies. Cell numbers were then assessed 12-14 days later.
# Cells were then incubated for 14 days at 37° C., 5% CO2 and 5% O2 and the number of viable cells was assessed using Promega's CellTiterGlo assay kit per the manufacturer's instructions. For the HCT-116 cell line (a commercially available colorectal tumor cell line), cells were plated at 2,000 cells per well in DMEM+1% FBS, followed 24-hours later by the addition of serum free DMEM containing recombinant human Notum in the presence or absence of monoclonal antibodies SC2.D2.2 or SC2.10B3. HCT-116 cells were then incubated for 12 days at 37° C., 5% CO2 and cell viability was assessed with Promega's CellTiterGlo assay kit. Higher readings are indicative of higher viable cell counts.
# [2] = biological target: T2, chimeric human/mouse Notum (Homo sapiens, UniProt Q6P988, A205S/A256S/E196D/E289D/E487K/H276R/H373G/H396Y/K251E/L360Q/L418F/L429M/L483M/M474V/N299S/P379Q/P480Q/Q248L/Q311K/R218K/R307Q/R361W/S193P/T277S/T284N/V280I/V301M/V434F/V452I/Y171H); assay: Neutralization of chimeric Notum in 293.TCF assay; assay type: cell-based
# T2 construct: human mature Notum protein (residues 19-144) fused to the mouse Notum (mouse residues 150-484); His tag; made in house
# T2 sequence (Q6P988 with tags, fused parts or gaps Y171H/S193P/E196D/A205S/R218K/Q248L/K251E/A256S/H276R/T277S/V280I/T284N/E289D/N299S/V301M/R307Q/Q311K/L360Q/R361W/H373G/P379Q/H396Y/L418F/L429M/V434F/V452I/M474V/P480Q/L483M/E487K): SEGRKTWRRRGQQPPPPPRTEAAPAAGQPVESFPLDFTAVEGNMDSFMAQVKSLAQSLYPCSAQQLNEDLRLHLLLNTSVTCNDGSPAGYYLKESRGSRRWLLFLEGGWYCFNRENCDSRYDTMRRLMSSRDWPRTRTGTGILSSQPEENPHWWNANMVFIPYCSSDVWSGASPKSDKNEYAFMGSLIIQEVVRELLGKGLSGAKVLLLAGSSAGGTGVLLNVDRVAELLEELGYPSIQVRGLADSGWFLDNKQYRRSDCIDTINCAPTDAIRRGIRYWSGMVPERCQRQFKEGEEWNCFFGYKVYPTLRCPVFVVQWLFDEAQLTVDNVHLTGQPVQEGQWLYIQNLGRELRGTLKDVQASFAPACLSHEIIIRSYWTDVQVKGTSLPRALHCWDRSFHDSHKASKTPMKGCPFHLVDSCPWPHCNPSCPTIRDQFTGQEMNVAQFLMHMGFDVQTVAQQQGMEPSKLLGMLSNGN
# Source text: (§1) To better understand the structural basis for the interaction of SC2.D2.2 with human Notum, a chimeric Notum protein was fabricated. This approach takes advantage of the fact that the orthologs are structurally related. To that end a chimeric Notum molecule composed of the N terminal of the human mature Notum protein (residues 19-144) fused to the mouse Notum (mouse residues 150-484) (genes both consistent with Example 7) was generated and expressed in a similar manner to that set forth in previous Examples. The BamHI restriction cleavage site in human Notum gene was used for construction of in-frame fusion Notum chimeric protein. An expression vector was then constructed containing the His tagged chimeric Notum sequence.
# The chimeric human/mouse Notum protein described in Example 17 was placed into the 293.TCF assay. […] (Note that FIG. 1C would annotate the residue as D129, based upon numbering from the start of the mature Notum protein, whereas the D141 annotation is based upon the consideration of the wild-type human protein precursor).
# [3] = biological target: T2, chimeric human/mouse Notum; assay: Epitope mapping ELISA, chimeric Notum; assay type: binding
# Source text: as §1
# Binding of SC2.D2.2 and other mouse mAbs to purified Notum molecules generated from transient transfection of Human and Mouse Notum cDNAs were tested using ELISA assay with human Notum, mouse Notum and chimeric human/mouse Notum coated directly on ELISA plate. Binding of anti-Notum mAbs was detected with HRP-conjugated goat anti mouse antibody and followed by colorimetric horseradish peroxidase substrate (TMB substrate Thermo Scientific). The absorbance of each well of the ELISA plates was measured at 450 nm on a microplate autoreader.
molecule,measurement,setting,value
B1,effect on lipase activity of Notum,hNotum,substantially eliminate the lipase activity of Notum
same,effect on proliferation / cell numbers,[1],significantly less proliferation
same,neutralization of chimeric Notum activity,[2],can be neutralized
same,binding to Notum chimeric protein,[3],confirmed the binding
same,location of epitope,[3],within the first 135 residues of the N terminus of the human Notum protein
